Data from article PMC5320943 (Structure (London, England : 1993), 2016).

Assays:
[1] = biological target: wild-type vaginolysin (VLY^wt) (Gardnerella vaginalis, UniProt B2YGA4 31-516); test: MST
[2] = biological target: T1, wild-type intermedilysin (ILY^wt) (Streptococcus intermedius, UniProt Q9LCB8 34-532); test: MST
T1 sequence: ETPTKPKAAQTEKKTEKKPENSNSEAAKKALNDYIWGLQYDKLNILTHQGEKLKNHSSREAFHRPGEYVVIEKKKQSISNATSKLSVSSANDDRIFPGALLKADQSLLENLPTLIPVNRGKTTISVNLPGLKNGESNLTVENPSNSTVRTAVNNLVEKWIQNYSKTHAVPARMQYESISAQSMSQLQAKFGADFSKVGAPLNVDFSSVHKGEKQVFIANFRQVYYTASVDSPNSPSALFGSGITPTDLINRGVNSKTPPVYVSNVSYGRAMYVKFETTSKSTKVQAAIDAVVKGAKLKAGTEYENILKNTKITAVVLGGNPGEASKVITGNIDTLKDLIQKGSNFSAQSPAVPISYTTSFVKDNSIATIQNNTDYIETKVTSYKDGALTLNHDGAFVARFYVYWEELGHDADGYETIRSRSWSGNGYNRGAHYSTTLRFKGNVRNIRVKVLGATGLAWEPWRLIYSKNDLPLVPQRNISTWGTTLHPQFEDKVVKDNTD

B1: CD59 mutant D22A (CD59^D22A) (receptor, human)
chain: LQCYNCPNPTADCKTAVNCSSAFDACLITKAGLQVYNKCWKFEHCNFNDVTTRLRENELTYYCCKKDLCNFNEQLEN
modifications: Dylight 650 label (in the microscale thermophoresis only)
Kd [1]: 779 nM | Kd [2]: 367 nM
